This test has as its target T1, glutathione S-transferase (GST)-fused ABI5 (Arabidopsis thaliana, UniProt Q9SJN0 1-442).
T1 sequence (looked up): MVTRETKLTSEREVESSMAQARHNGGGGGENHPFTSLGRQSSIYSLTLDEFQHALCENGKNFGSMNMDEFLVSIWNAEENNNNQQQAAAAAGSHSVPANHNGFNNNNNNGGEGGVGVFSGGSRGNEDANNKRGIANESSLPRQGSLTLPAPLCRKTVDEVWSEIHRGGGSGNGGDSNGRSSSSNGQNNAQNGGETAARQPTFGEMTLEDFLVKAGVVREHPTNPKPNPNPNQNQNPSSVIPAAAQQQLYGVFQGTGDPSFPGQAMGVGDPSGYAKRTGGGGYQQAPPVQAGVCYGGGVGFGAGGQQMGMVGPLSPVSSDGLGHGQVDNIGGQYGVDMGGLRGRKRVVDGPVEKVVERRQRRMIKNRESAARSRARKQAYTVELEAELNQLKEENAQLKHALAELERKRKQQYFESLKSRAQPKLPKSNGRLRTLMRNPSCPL
Put plainly: pull-down.

B1: MYB70-His (natural protein)
chain: not shown
For B1, the binding result was “binds”.

The values are drawn from paper PMC8551079 (iScience, 2021).
